Results: patent US20250084142A1 (INTARCIA THERAPEUTICS, published 2025)
Starred links: 1 amine or outer side, 2 acyl side, 3 side chain; linkers in the order of their positions; H or OH if unused. Positions of bridges follow the written chain, without caps; N, C: chain ends. Non-standard residues stand in square brackets, D forms with d. Groups on a side chain read outwards from the residue. No end group written: not given here. *: point of attachment. dpeg = —[CO(CH2)O(CH2)2O(CH2)NH]— spacer, O=C(COCCOCN[*:1])[*:2]; C20 diacid = O=C(O)CCCCCCCCCCCCCCCCCCC(=O)*; C19 diacid = O=C(O)CCCCCCCCCCCCCCCCCC(=O)*; C18 diacid = O=C(O)CCCCCCCCCCCCCCCCC(=O)*; γGlu = O=C(O)[C@H](CCC(=O)[*:2])N[*:1]

B1: Compound A39 (peptide)
peptide: PKPEKPGK([γGlu-γGlu-C19 diacid])DASPKEWERYYKDLRHYLNWLTRQRF-NH2
modifications: lactam 16-20; N-terminus assumed
SMILES: CC(C)C[C@H](NC(=O)[C@H](CC(=O)O)NC(=O)[C@@H]1CCCCNC(=O)CC[C@H](NC(=O)[C@H](Cc2c[nH]c3ccccc23)NC(=O)[C@H](CCC(=O)O)NC(=O)[C@H](CCCCN)NC(=O)[C@@H]2CCCN2C(=O)[C@H](CO)NC(=O)[C@H](C)NC(=O)[C@H](CC(=O)O)NC(=O)[C@H](CCCCNC(=O)CC[C@H](NC(=O)CC[C@H](NC(=O)CCCCCCCCCCCCCCCCCC(=O)O)C(=O)O)C(=O)O)NC(=O)CNC(=O)[C@@H]2CCCN2C(=O)[C@H](CCCCN)NC(=O)[C@H](CCC(=O)O)NC(=O)[C@@H]2CCCN2C(=O)[C@H](CCCCN)NC(=O)[C@@H]2CCCN2)C(=O)N[C@@H](CCCNC(=N)N)C(=O)N[C@@H](Cc2ccc(O)cc2)C(=O)N[C@@H](Cc2ccc(O)cc2)C(=O)N1)C(=O)N[C@@H](CCCNC(=N)N)C(=O)N[C@@H](Cc1c[nH]cn1)C(=O)N[C@@H](Cc1ccc(O)cc1)C(=O)N[C@@H](CC(C)C)C(=O)N[C@@H](CC(N)=O)C(=O)N[C@@H](Cc1c[nH]c2ccccc12)C(=O)N[C@@H](CC(C)C)C(=O)N[C@H](C(=O)N[C@@H](CCCNC(=N)N)C(=O)N[C@@H](CCC(N)=O)C(=O)N[C@@H](CCCNC(=N)N)C(=O)N[C@@H](Cc1ccccc1)C(N)=O)[C@@H](C)O
B2: Compound A14 (peptide)
peptide: PKPEAPGKDASPEEWNRYY[dK]([γGlu-γGlu-C20 diacid])DLRHYLNWLTRQRF-NH2
modifications: N-terminus assumed
SMILES: CC(C)C[C@H](NC(=O)[C@H](Cc1ccc(O)cc1)NC(=O)[C@H](Cc1c[nH]cn1)NC(=O)[C@H](CCCNC(=N)N)NC(=O)[C@H](CC(C)C)NC(=O)[C@H](CC(=O)O)NC(=O)[C@@H](CCCCNC(=O)CC[C@H](NC(=O)CC[C@H](NC(=O)CCCCCCCCCCCCCCCCCCC(=O)O)C(=O)O)C(=O)O)NC(=O)[C@H](Cc1ccc(O)cc1)NC(=O)[C@H](Cc1ccc(O)cc1)NC(=O)[C@H](CCCNC(=N)N)NC(=O)[C@H](CC(N)=O)NC(=O)[C@H](Cc1c[nH]c2ccccc12)NC(=O)[C@H](CCC(=O)O)NC(=O)[C@H](CCC(=O)O)NC(=O)[C@@H]1CCCN1C(=O)[C@H](CO)NC(=O)[C@H](C)NC(=O)[C@H](CC(=O)O)NC(=O)[C@H](CCCCN)NC(=O)CNC(=O)[C@@H]1CCCN1C(=O)[C@H](C)NC(=O)[C@H](CCC(=O)O)NC(=O)[C@@H]1CCCN1C(=O)[C@H](CCCCN)NC(=O)[C@@H]1CCCN1)C(=O)N[C@@H](CC(N)=O)C(=O)N[C@@H](Cc1c[nH]c2ccccc12)C(=O)N[C@@H](CC(C)C)C(=O)N[C@H](C(=O)N[C@@H](CCCNC(=N)N)C(=O)N[C@@H](CCC(N)=O)C(=O)N[C@@H](CCCNC(=N)N)C(=O)N[C@@H](Cc1ccccc1)C(N)=O)[C@@H](C)O
B3: Compound A72 (peptide)
peptide: PKPEK([γGlu-γGlu-C20 diacid])PGEDASPKEWNRYYKDLRHYLNWLTRQRF-NH2
modifications: N-terminus assumed
SMILES: CC(C)C[C@H](NC(=O)[C@H](CC(=O)O)NC(=O)[C@H](CCCCN)NC(=O)[C@H](Cc1ccc(O)cc1)NC(=O)[C@H](Cc1ccc(O)cc1)NC(=O)[C@H](CCCNC(=N)N)NC(=O)[C@H](CC(N)=O)NC(=O)[C@H](Cc1c[nH]c2ccccc12)NC(=O)[C@H](CCC(=O)O)NC(=O)[C@H](CCCCN)NC(=O)[C@@H]1CCCN1C(=O)[C@H](CO)NC(=O)[C@H](C)NC(=O)[C@H](CC(=O)O)NC(=O)[C@H](CCC(=O)O)NC(=O)CNC(=O)[C@@H]1CCCN1C(=O)[C@H](CCCCNC(=O)CC[C@H](NC(=O)CC[C@H](NC(=O)CCCCCCCCCCCCCCCCCCC(=O)O)C(=O)O)C(=O)O)NC(=O)[C@H](CCC(=O)O)NC(=O)[C@@H]1CCCN1C(=O)[C@H](CCCCN)NC(=O)[C@@H]1CCCN1)C(=O)N[C@@H](CCCNC(=N)N)C(=O)N[C@@H](Cc1c[nH]cn1)C(=O)N[C@@H](Cc1ccc(O)cc1)C(=O)N[C@@H](CC(C)C)C(=O)N[C@@H](CC(N)=O)C(=O)N[C@@H](Cc1c[nH]c2ccccc12)C(=O)N[C@@H](CC(C)C)C(=O)N[C@H](C(=O)N[C@@H](CCCNC(=N)N)C(=O)N[C@@H](CCC(N)=O)C(=O)N[C@@H](CCCNC(=N)N)C(=O)N[C@@H](Cc1ccccc1)C(N)=O)[C@@H](C)O
B4: Compound A35 (peptide)
peptide: PKPEK([γGlu-γGlu-C18 diacid])PGEDASPKEWDRYYKDLRHYLNWLTRQRF-NH2
modifications: N-terminus assumed
SMILES: CC(C)C[C@H](NC(=O)[C@H](CC(=O)O)NC(=O)[C@H](CCCCN)NC(=O)[C@H](Cc1ccc(O)cc1)NC(=O)[C@H](Cc1ccc(O)cc1)NC(=O)[C@H](CCCNC(=N)N)NC(=O)[C@H](CC(=O)O)NC(=O)[C@H](Cc1c[nH]c2ccccc12)NC(=O)[C@H](CCC(=O)O)NC(=O)[C@H](CCCCN)NC(=O)[C@@H]1CCCN1C(=O)[C@H](CO)NC(=O)[C@H](C)NC(=O)[C@H](CC(=O)O)NC(=O)[C@H](CCC(=O)O)NC(=O)CNC(=O)[C@@H]1CCCN1C(=O)[C@H](CCCCNC(=O)CC[C@H](NC(=O)CC[C@H](NC(=O)CCCCCCCCCCCCCCCCC(=O)O)C(=O)O)C(=O)O)NC(=O)[C@H](CCC(=O)O)NC(=O)[C@@H]1CCCN1C(=O)[C@H](CCCCN)NC(=O)[C@@H]1CCCN1)C(=O)N[C@@H](CCCNC(=N)N)C(=O)N[C@@H](Cc1c[nH]cn1)C(=O)N[C@@H](Cc1ccc(O)cc1)C(=O)N[C@@H](CC(C)C)C(=O)N[C@@H](CC(N)=O)C(=O)N[C@@H](Cc1c[nH]c2ccccc12)C(=O)N[C@@H](CC(C)C)C(=O)N[C@H](C(=O)N[C@@H](CCCNC(=N)N)C(=O)N[C@@H](CCC(N)=O)C(=O)N[C@@H](CCCNC(=N)N)C(=O)N[C@@H](Cc1ccccc1)C(N)=O)[C@@H](C)O
B5: Compound A36 (peptide)
peptide: PKPEK([γGlu-γGlu-C19 diacid])PGEDASPKEWNRYYKDLRHYLNWLTRQRF-NH2
modifications: N-terminus assumed
SMILES: CC(C)C[C@H](NC(=O)[C@H](CC(=O)O)NC(=O)[C@H](CCCCN)NC(=O)[C@H](Cc1ccc(O)cc1)NC(=O)[C@H](Cc1ccc(O)cc1)NC(=O)[C@H](CCCNC(=N)N)NC(=O)[C@H](CC(N)=O)NC(=O)[C@H](Cc1c[nH]c2ccccc12)NC(=O)[C@H](CCC(=O)O)NC(=O)[C@H](CCCCN)NC(=O)[C@@H]1CCCN1C(=O)[C@H](CO)NC(=O)[C@H](C)NC(=O)[C@H](CC(=O)O)NC(=O)[C@H](CCC(=O)O)NC(=O)CNC(=O)[C@@H]1CCCN1C(=O)[C@H](CCCCNC(=O)CC[C@H](NC(=O)CC[C@H](NC(=O)CCCCCCCCCCCCCCCCCC(=O)O)C(=O)O)C(=O)O)NC(=O)[C@H](CCC(=O)O)NC(=O)[C@@H]1CCCN1C(=O)[C@H](CCCCN)NC(=O)[C@@H]1CCCN1)C(=O)N[C@@H](CCCNC(=N)N)C(=O)N[C@@H](Cc1c[nH]cn1)C(=O)N[C@@H](Cc1ccc(O)cc1)C(=O)N[C@@H](CC(C)C)C(=O)N[C@@H](CC(N)=O)C(=O)N[C@@H](Cc1c[nH]c2ccccc12)C(=O)N[C@@H](CC(C)C)C(=O)N[C@H](C(=O)N[C@@H](CCCNC(=N)N)C(=O)N[C@@H](CCC(N)=O)C(=O)N[C@@H](CCCNC(=N)N)C(=O)N[C@@H](Cc1ccccc1)C(N)=O)[C@@H](C)O
B6: Compound A34 (peptide)
peptide: PKPEKPGEDASPKEWDRYYK([γGlu-γGlu-C20 diacid])DLRHYLNWLTRQRF-NH2
modifications: N-terminus assumed
SMILES: CC(C)C[C@H](NC(=O)[C@H](CC(=O)O)NC(=O)[C@H](CCCCNC(=O)CC[C@H](NC(=O)CC[C@H](NC(=O)CCCCCCCCCCCCCCCCCCC(=O)O)C(=O)O)C(=O)O)NC(=O)[C@H](Cc1ccc(O)cc1)NC(=O)[C@H](Cc1ccc(O)cc1)NC(=O)[C@H](CCCNC(=N)N)NC(=O)[C@H](CC(=O)O)NC(=O)[C@H](Cc1c[nH]c2ccccc12)NC(=O)[C@H](CCC(=O)O)NC(=O)[C@H](CCCCN)NC(=O)[C@@H]1CCCN1C(=O)[C@H](CO)NC(=O)[C@H](C)NC(=O)[C@H](CC(=O)O)NC(=O)[C@H](CCC(=O)O)NC(=O)CNC(=O)[C@@H]1CCCN1C(=O)[C@H](CCCCN)NC(=O)[C@H](CCC(=O)O)NC(=O)[C@@H]1CCCN1C(=O)[C@H](CCCCN)NC(=O)[C@@H]1CCCN1)C(=O)N[C@@H](CCCNC(=N)N)C(=O)N[C@@H](Cc1c[nH]cn1)C(=O)N[C@@H](Cc1ccc(O)cc1)C(=O)N[C@@H](CC(C)C)C(=O)N[C@@H](CC(N)=O)C(=O)N[C@@H](Cc1c[nH]c2ccccc12)C(=O)N[C@@H](CC(C)C)C(=O)N[C@H](C(=O)N[C@@H](CCCNC(=N)N)C(=O)N[C@@H](CCC(N)=O)C(=O)N[C@@H](CCCNC(=N)N)C(=O)N[C@@H](Cc1ccccc1)C(N)=O)[C@@H](C)O

The binders below were run against NPY1R (assay: cell-based or functional assay).
Sequence of NPY1R (P25929 whole entry): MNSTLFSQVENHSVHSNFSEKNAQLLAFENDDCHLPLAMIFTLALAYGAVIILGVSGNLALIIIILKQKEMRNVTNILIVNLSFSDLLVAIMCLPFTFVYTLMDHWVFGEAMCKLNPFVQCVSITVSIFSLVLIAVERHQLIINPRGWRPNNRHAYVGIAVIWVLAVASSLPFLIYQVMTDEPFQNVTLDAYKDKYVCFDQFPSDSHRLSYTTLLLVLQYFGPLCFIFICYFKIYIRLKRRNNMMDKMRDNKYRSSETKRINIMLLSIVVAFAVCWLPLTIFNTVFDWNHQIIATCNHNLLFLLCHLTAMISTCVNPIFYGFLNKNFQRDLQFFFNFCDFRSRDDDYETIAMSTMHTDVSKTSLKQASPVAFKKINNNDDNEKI

Binder	NPY1R pEC50
B1	9.1 -Log(EC50, M)
B2	8.5 -Log(EC50, M)
B3	9 -Log(EC50, M)
PKPEAPGKDASPEEWNRYY[dK]([γGlu-dpeg-dpeg-γGlu-C20 diacid])DLRHYLNWLTRQRF-NH2 [Compound A65]	8 -Log(EC50, M)

These binders were tested against T1, NPY2R (assay: cell-based or functional assay).
T1 sequence (P49146 1-381, species assumed, looked up): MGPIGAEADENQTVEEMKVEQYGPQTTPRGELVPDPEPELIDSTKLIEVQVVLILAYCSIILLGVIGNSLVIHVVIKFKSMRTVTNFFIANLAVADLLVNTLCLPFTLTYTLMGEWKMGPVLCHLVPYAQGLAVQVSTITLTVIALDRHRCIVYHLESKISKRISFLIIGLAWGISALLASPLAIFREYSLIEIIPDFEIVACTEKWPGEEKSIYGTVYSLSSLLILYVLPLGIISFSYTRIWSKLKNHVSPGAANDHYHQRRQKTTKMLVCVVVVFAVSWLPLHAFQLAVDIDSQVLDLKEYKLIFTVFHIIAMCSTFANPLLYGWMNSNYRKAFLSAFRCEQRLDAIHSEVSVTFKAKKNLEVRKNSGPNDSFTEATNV

Binder	NPY2R pEC50
B1	10.4 -Log(EC50, M)
B4	10.5 -Log(EC50, M)
B3	10.8 -Log(EC50, M)
B5	10.9 -Log(EC50, M)
PKPEAPGKDASPEEWNRYY[dK]([γGlu-dpeg-dpeg-γGlu-C20 diacid])DLRHYLNWLTRQRF-NH2 [Compound A65]	10.2 -Log(EC50, M)
B6	10.2 -Log(EC50, M)

The binders below were run against T2, NPY5R (assay: cell-based or functional assay).
T2 sequence (Q15761 1-445, species assumed, looked up): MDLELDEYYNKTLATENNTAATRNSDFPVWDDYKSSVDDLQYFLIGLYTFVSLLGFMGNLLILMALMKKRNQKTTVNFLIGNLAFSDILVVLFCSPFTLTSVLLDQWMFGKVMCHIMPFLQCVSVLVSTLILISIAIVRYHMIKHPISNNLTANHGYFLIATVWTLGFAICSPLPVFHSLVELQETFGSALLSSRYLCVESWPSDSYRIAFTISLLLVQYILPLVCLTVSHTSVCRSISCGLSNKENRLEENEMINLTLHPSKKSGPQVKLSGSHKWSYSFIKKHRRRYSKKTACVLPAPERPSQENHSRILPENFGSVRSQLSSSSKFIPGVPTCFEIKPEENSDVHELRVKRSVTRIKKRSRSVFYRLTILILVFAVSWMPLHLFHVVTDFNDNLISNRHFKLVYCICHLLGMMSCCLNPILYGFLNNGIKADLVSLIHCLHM

Binder	NPY5R pEC50
B1	8.9 -Log(EC50, M)
B4	9.1 -Log(EC50, M)
B2	8.3 -Log(EC50, M)
B3	8.8 -Log(EC50, M)
B5	8.7 -Log(EC50, M)
PKPEAPGKDASPEEWNRYY[dK]([γGlu-dpeg-dpeg-γGlu-C20 diacid])DLRHYLNWLTRQRF-NH2 [Compound A65]	8.6 -Log(EC50, M)
B6	8.8 -Log(EC50, M)
